From the supplement of paper PMC5998384 come the findings set out here.

Data set [1] relates to HeLa Kyoto. Description: solubility change mitosis vs G1/S (difference of NP-40 vs SDS log2 ratios) (log2 ratio difference); higher = more soluble in mitosis.
Data set [2] deals with HeLa Kyoto. Description: melting temperature (median over replicates), in situ; higher = more thermally stable.
For data set [3], the system named is HeLa Kyoto. Put plainly: solubility in G1/S (NP-40 vs SDS abundance) (log2 ratio); higher = more soluble. The conditions noted are these: cell cycle stage: G1/S.
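Wherever melting temperature (median over replicates), in situ is given: HeLa Kyoto cells synchronized by double thymidine or nocodazole block, proteins quantified by TMT10plex mass spectrometry, three independent biological replicates.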
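Wherever solubility change mitosis vs G1/S (difference of NP-40 vs SDS log2 ratios) is given: synchronized HeLa Kyoto cells (double thymidine block for G1/S, nocodazole release for mitosis), protein amounts in NP-40 versus SDS lysates quantified by mass spectrometry, three biological replicates.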
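Wherever solubility in G1/S (NP-40 vs SDS abundance) is given: HeLa Kyoto cells arrested at G1/S by double thymidine block, proteins quantified by TMT10plex mass spectrometry in mild NP-40 versus SDS extracts, three biological replicates.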

For the sequence “MSRLIVKNLPNGMKEERFRQLFAAFGTLTDCSLKFTKDGKFRKFGFIGFKSEEEAQKAQKHFNKSFIDTSRITVEFCKSFGDPAKPRAWSKHAQKPSQPKQPPKDSTTPEIKKDEKKKKVAGQLEKLKEDTEFQEFLSVHQRRAQAATWANDGLDAEPSKGKSKPASDYLNFDSDSGQESEEEGAGEDLEEEASLEPKAAVQKELSDMDYLKSKMVKAGSSSSSEEEESEDEAVHCDEGSEAEEEDSSATPVLQERDSKGAGQEQGMPAGKKRPPEARAETEKPANQKEPTTCHTVKLRGAPFNVTEKNVMEFLAPLKPVAIRIVRNAHGNKTGYIFVDFSNEEEVKQALKCNREYMGGRYIEVFREKNVPTTKGAPKNTTKSWQGRILGENEEEEDLAESGRLFVRNLPYTSTEEDLEKLFSKYGPLSELHYPIDSLTKKPKGFAFITFMFPEHAVKAYSEVDGQVFQGRMLHVLPSTIKKEASEDASALGSSSYKKKKEAQDKANSASSHNWNTLFMGPNAVADAIAQKYNATKSQVFDHETKGSVAVRVALGETQLVQEVRRFLIDNGVSLDSFSQAAAERSKTVILVKNLPAGTLAAQLQETFGHFGSLGRVLLPEGGITAIVEFLEPLEARKAFRHLAYSKFHHVPLYLEWAPVGVFSSTAPQKKKLQDTPSEPMEKDPAEPETVPDGETPEDENPTEEGADNSSAKMEEEEEEEEEEEESLPGCTLFIKNLNFDTTEEKLKEVFSKVGTVKSCSISKKKNKAGVLLSMGFGFVEYRKPEQAQKALKQLQGHVVDGHKLEVRISERATKPAVTLARKKQVPRKQTTSKILVRNIPFQAHSREIRELFSTFGELKTVRLPKKMTGTGTHRGFGFVDFLTKQDAKRAFNALCHSTHLYGRRLVLEWADSEVTLQALRRKTAAHFHEPPKKKRSVVLDEILEQLEGSDSDSEEQTLQL [RBM19]”, the “solubility change mitosis (log2)” value in data set [1] is 0.706. Further, the melting temperature worked out at 48.5 °C in data set [2] (cell cycle stage: G1/S) and 51.2 °C in data set [2] (cell cycle stage: mitosis). In data set [3], the “solubility in G1/S (log2)” value is -1.27.
As for “MSRQTTSVGSSCLDLWREKNDRLVRQAKVAQNSGLTLRRQQLAQDALEGLRGLLHSLQGLPAAVPVLPLELTVTCNFIILRASLAQGFTEDQAQDIQRSLERVLETQEQQGPRLEQGLRELWDSVLRASCLLPELLSALHRLVGLQAALWLSADRLGDLALLLETLNGSQSGASKDLLLLLKTWSPPAEELDAPLTLQDAQGLKDVLLTAFAYRQGLQELITGNPDKALSSLHEAASGLCPRPVLVQVYTALGSCHRKMGNPQRALLYLVAALKEGSAWGPPLLEASRLYQQLGDTTAELESLELLVEALNVPCSSKAPQFLIEVELLLPPPDLASPLHCGTQSQTKHILASRCLQTGRAGDAAEHYLDLLALLLDSSEPRFSPPPSPPGPCMPEVFLEAAVALIQAGRAQDALTLCEELLSRTSSLLPKMSRLWEDARKGTKELPYCPLWVSATHLLQGQAWVQLGAQKVAISEFSRCLELLFRATPEEKEQGAAFNCEQGCKSDAALQQLRAAALISRGLEWVASGQDTKALQDFLLSVQMCPGNRDTYFHLLQTLKRLDRRDEATALWWRLEAQTKGSHEDALWSLPLYLESYLSWIRPSDRDAFLEEFRTSLPKSCDL [FANCG]”, the “solubility change mitosis (log2)” value in data set [1] is -0.0579. The melting temperature in data set [2] (cell cycle stage: G1/S) was 49.9 °C; in data set [2] (cell cycle stage: mitosis), 48 °C. In addition, the “solubility in G1/S (log2)” value in data set [3] was found to be 0.138.
Turning to “MSVAGGEIRGDTGGEDTAAPGRFSFSPEPTLEDIRRLHAEFAAERDWEQFHQPRNLLLALVGEVGELAELFQWKTDGEPGPQGWSPRERAALQEELSDVLIYLVALAARCRVDLPLAVLSKMDINRRRYPAHLARSSSRKYTELPHGAISEDQAVGPADIPCDSTGQTST [DCTPP1]”, the “solubility change mitosis (log2)” value in data set [1] stood at 0.646. For the same sequence, the results for the melting temperature in data set [2] (cell cycle stage: G1/S) and in data set [2] (cell cycle stage: mitosis) were 54.1 °C and 50.5 °C, respectively. Further, the “solubility in G1/S (log2)” value in data set [3] is -0.0125.
For the sequence “MSYYLSSENHLDPGPIYMRENGQLHMVNLALDGVRSSLQKPRPFRLFPKGFSVELCMNREDDTARKEKTDHFIFTYTREGNLRYSAKSLFSLVLGFISDNVDHIDSLIGFPEQIAEKLFSAAEARQKFTEPGAGLRALQKFTEAYGSLVLCSLCLRNRYLVISEKLEEIKSFRELTCLDLSCCKLGDEHELLEHLTNEALSSVTQLHLKDNCLSDAGVRKMTAPVRVMKRGLENLTLLDLSCNPEITDAGIGYLFSFRKLNCLDISGTGLKDIKTVKHKLQTHIGLVHSKVPLKEFDHSNCKTEGWADQIVLQWERVTAEAVKPRETSEPRAAAQRFYGKRSRAEAPLKCPLADTHMNSSEKLQFYKEKAPDCHGPVLKHEAISSQESKKSKKRPFEESETEQNNSSQPSKQKYVCLAVEDWDLLNSY [LRRC42]”, in data set [1], the “solubility change mitosis (log2)” value is -0.111. Further, the results for the melting temperature in data set [2] (cell cycle stage: G1/S) and in data set [2] (cell cycle stage: mitosis) were 49 °C and 50.9 °C, respectively. The “solubility in G1/S (log2)” value in data set [3] was -0.0147.
Take “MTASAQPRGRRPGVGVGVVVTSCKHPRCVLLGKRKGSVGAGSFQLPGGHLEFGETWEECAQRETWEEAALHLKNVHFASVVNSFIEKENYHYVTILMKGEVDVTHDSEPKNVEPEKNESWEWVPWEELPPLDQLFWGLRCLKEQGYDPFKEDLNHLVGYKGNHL [NUDT15]”: the “solubility change mitosis (log2)” value in data set [1] was -0.3. In addition, the melting temperature came out at 53.4 °C in data set [2] (cell cycle stage: G1/S) and 52.3 °C in data set [2] (cell cycle stage: mitosis). Besides, the “solubility in G1/S (log2)” value in data set [3] worked out at 0.425.
